Assay: yeast display, Sf9 membrane polyspecificity reagent, FACS + sequencing; frameworks hold sequencing errors
Summary of the method: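 A nanobody's polyreactivity label depends on the gate it was sorted from. Yeast display cells were stained with 10% biotinylated, detergent-solubilized Sf9 membrane reagent for 1 hour at 4 °C, enriched on streptavidin microbeads and sorted by FACS. The low and high (top ~1%) gates were set on anti-HA fluorescence for expression and streptavidin fluorescence for reagent binding.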

Sequence: QVQLVESGGGLVQAGGSLRLSCAASGITFSYNAMGWYRPAPGKERELVAAIRVGDGSTYYADSVKGRFTISRDNAKNTVYLQMNSLNPEDTAVYYCNARYLRLRYPYTDEYNYWGQGTQVTVSS
- polyreactivity (PSR sort gate): low polyreactivity

Sequence: QVQLEESGGGLVQAGGSLRLSCAASGRTSLAYAKGWYRQAPGKERELVAGITSGGNTNYADSVKGRFTISRDNAKNTVYLQMNSLKPEDTAVYSCNKKKRWQWYSESVLVYLGFYSWGQGTQVTVSS
- polyreactivity (PSR sort gate): low polyreactivity

Sequence: QVQLQESGGGLVQAGGSLRLSCAARGNNSSYYRMGWYRQAPGQEREFVATIAVGGTTNYADSVKGRFTISRDNEKTTLYLQRNSLKPEDTAVCFCAANSTQYTWFDYWGQGTQVPVSS
- polyreactivity (PSR sort gate): low polyreactivity

Sequence: QVQLVESGGGLVQAGGSHRLSCAASGIIFWRYAMGWYRQAPGKERELVAGITSRGGSTYYADSVKGRFTISRDNAKNTVYLQMNSLKPEDTAVYFCNADWFGQLWWGVDYWGQGTQVTVSS
- polyreactivity (PSR sort gate): high polyreactivity

Sequence: QVQLVESGGGLDQAGGSLRLSCAASGRIFNKYAMGWYRQAPGKERELVAAISSGASTYYADSVKGRFTISRDNAKNTVYLQMNSLKPEDTAVYYCAAGGSKGGNYWGQGTQVTVSS
- polyreactivity (PSR sort gate): high polyreactivity

Sequence: QVQLVESGGGLVQAGGSLRLSCAASGRTFYYNGMAWYRQAPGKERELVAAITSGGTTTYADSVKGLFTISRDNAKNSVYLQMNSVKPEETAVYYSNADYWAVNYDYCGQGTQVTVSS
- polyreactivity (PSR sort gate): low polyreactivity

Sequence: QVQLVESGGGLVQAGGSLRLSCAASGSTLVRYAMGWYRQAPGKERELVASISYSGGSTHYADSVKGRFTISRDNAKNTVYLQMNSLKPEDTAVYYCAARRYYSWGGHYYWGQGTQVTVSS
- polyreactivity (PSR sort gate): high polyreactivity

Sequence: QVQLVESGGGLVQAGGSLRLSCAASGSTFPYYAMGWYRQAPGKERELVAAISSSGSRTYYADSVKGRFTISRDNAKNTVYLQMNSLKPEDTAVYYCAADNAAQPYPAGMDYWGQGTQVTVSS
- polyreactivity (PSR sort gate): low polyreactivity

Sequence: QVQLVESGGGLVQAGGSLRLSCAASGSTLVYYDMGWYRKAPGKERELVATITGTDSTYYADSVKGRFTISRDNAKNTVYLQMNSLKPEDTADCAADRAASRPDYDYWGQGTQVTVSS
- polyreactivity (PSR sort gate): low polyreactivity

Sequence: QVQLVESGGGLVQAGGSLRLSCAASGRIIAGYTMGWYRQAPGKERELVAAIRSSGRTHYADSVKGRFTISRDNAKNTVYLQMNSLKPEDTAVYYCAARWTYTFAYRFDYWGQGTQVTVSS
- polyreactivity (PSR sort gate): high polyreactivity

Sequence: QVQLVESGGGLVQAGGSLRLSCAASGSIFGGYTMGWYRQAPGKERELVAAISRRGGNTYYADSVKGRFTISRDYAKNTVYLQMNSLKPDDTAVYFCAKRYASTSGYWGQGTQVTVSS
- polyreactivity (PSR sort gate): high polyreactivity

Sequence: QVQLVESGGGLVQAGGSLRLSCAASGSTFDANAMGWYRQAPGKERELVAAITSNGGSTYYADSVKGRFTISRDNAKNTVYLQMNSLKPEDTAVYYCDTEQHTVQDYDYWGQGTQVTVSS
- polyreactivity (PSR sort gate): low polyreactivity

Sequence: QVHLVESGGGLVQAGGSLRLSCAASGRISQNALGWYRQAPGKEREVVAAITFSGGSTYYADSVKGRFTISRDNATNTVYLQMNSLKPEDNAVYYCNVRLYTDGLKYDYWGQGTQVTVSS
- polyreactivity (PSR sort gate): low polyreactivity

Sequence: QVQLVESGGGLVQAGGSLRLSCAASGFTFGYNAMGWYRQAPGKERELVAAISRSGGRTYYADSVKGRFTISRDNAKNTVYLQMNSLKPEDTAVYYCARRYRDYGRYGYWGQGTQVTVSS
- polyreactivity (PSR sort gate): high polyreactivity

Sequence: QVQLVESGGGLVQAGGSLRLSCAASGSIFYGYAMGWYRQAPGKERELVATITSGDSTNYADSVKGRFTISRDNAKNTVYLQMNSLKPEDTAVYYCAADPAHYVFWYGRYGYDYWGQGTQVTVSS
- polyreactivity (PSR sort gate): low polyreactivity

Sequence: QVQLVESGGGLVQAGGSLRLSCAASGSILPYNAMGWYRQAPGKERELVCSSSRGGGTNYADSVKGRFTISRDNAKNTVYLQMNSLKPEDTAVYYCAARTLRVDYDSHWYSLVDYWGQGTQVTVSS
- polyreactivity (PSR sort gate): low polyreactivity

Sequence: QVQLVESGGGLVQAGGSLRLSCAASGFTFGFYAMGWYRQAPGKERELVAAISGSGGRTYYADSVKGRFTISRDNAKNTVYLQMNSLKPEDTAVYYCAARWQRKSNGDEDYWGQGTQVTVSS
- polyreactivity (PSR sort gate): high polyreactivity

Sequence: QVQLVESGGGLVQAGGSLRLSCDASGSIFRGNAMGCYRQAPGKERELVPDITSGSNTYYADSVKGRFTISRDNAKNTVYLQMNSLKPEDTAVYYCAADGVAYPWWSVYNSFDYWGQGTQVTVSS
- polyreactivity (PSR sort gate): low polyreactivity

Sequence: QVQLVESGGGLVQAGGSLRLSCAASGFTLDDNGMGWYRPAPGKECELVESITWSGGSTDYADSVKGRFTISRDTAKNTVYLQMNSLKPEDTAVYSCNVGDPIGGFLSYWGGDYWGQGTQVTVSS
- polyreactivity (PSR sort gate): low polyreactivity

Sequence: QVQLVESGGGLVQAGGSLRLSCAASGSISGYYVMGWYRQAQGKERELVAAITWRGGSTYYADSVKGRFTISRDNAKNTVYLQMNSLKPEDTAVYYCNKVPGRGSTFEYWGQGTQVTVSS
- polyreactivity (PSR sort gate): high polyreactivity

Sequence: QVQLVESGGGLVQAGGSLRLSCAASGFTFYYNAMGWYRQAPGKERELVAIRFRGGNTYYADSVKGRFTISRDNAKNTVYLQMNSLKPEDTAVYYCNADDRGSTYVDFDYWGQGTQVTVSS
- polyreactivity (PSR sort gate): low polyreactivity

Sequence: QGQLVESGGGLVQAGGSRRLSCAASGRIFFYYAMGGYRQGPGQARELVAAISQSGASTYYADSVKGRFTISRDTAKNTVYLQMNSLKPEDTAVYYCNHKPYWYRDYYYWGQGTQVTVSS
- polyreactivity (PSR sort gate): high polyreactivity

Sequence: QVQLVESGGGLVQAGGSLRLSCAASVSIFETYAMGWSRQAPGKERELDAAISSSGGTTYYADSVKGRFTISRDTAKNTVYLQMNSLKPEDTAVYYCAARSAATHWTFLFYYDFDYWGQGTQVTVSS
- polyreactivity (PSR sort gate): low polyreactivity

Sequence: QVQLQESGGGLVQAGGSLRLSCAASGTISPLPAMGWYRQAPGKEREFVAGIDTGAITNYADSVKGRFTISRDNAKNTVYLQMNSLKPEDTAVYYCAVFQAAYDYYERYYTYWGQGTQVTVSS
- polyreactivity (PSR sort gate): low polyreactivity

Sequence: QVQLVESGGGLVQAGGSLRLSCAASGSTSRYAMGWYRQAPGKERELVAAITRSGGTTYYADSVKGRYTISRDNAKNTVYLQMNSLKPEDTAVYYCATSDRQVKYDYWGQGTQVTVSS
- polyreactivity (PSR sort gate): low polyreactivity

Sequence: QVQLVESGGGLVQAGCSLSLSCAASGITFRSYAKGWYRQAPGKERELVAAIRSGGSTSYADSVKGRFTISRDNAKYTVYLQMNSLKPEDTAVYYCAAGGYVPLPDITFWKFGYWGQGTQGTVSS
- polyreactivity (PSR sort gate): low polyreactivity

Sequence: QVQLVESGGGLVQAGGSLRLSCAASGSTFDSYAMGWYRQAPGKERELVAAISRSGGRTYYADSVKGRFTISRDNAKNTVYLQMNSLKPEDTAVYYCNAAYKRWVTPGYDAYDYWGQGTQVTVSS
- polyreactivity (PSR sort gate): high polyreactivity

Sequence: QVQLVESGGGLVQAGGSLRLSCAASGNILGYYAMGWYRQAPGKERELVADINWDGGSTYYADSVKGRFTISRDNAKNTVYLQMNSLKPEDTAVYYCNAEVGITWWFREVDYWGQGTQVTVSS
- polyreactivity (PSR sort gate): high polyreactivity

Sequence: QEKLQESGSGLVQAGGSLRLSCAASGNIFQDWVMRWYRQAPGKERELVAAISPGAITYYADSVKGRFTISRDNAKNTVYLQTNSLKPEDTAVYYCAAYYIVEYLHGYWGQGTRVTVSS
- polyreactivity (PSR sort gate): low polyreactivity

Sequence: QVQLLESGGGLVQAGGSLRLSCASSGYINSYYTMGWYRHATGKERVLVASIRWAGGRTYYADSVKGRFTFSRDNAKITVYLQMNSLKPEDTAVYYCNVKSSRFLDVGRMEYWGQGTQVTVSS
- polyreactivity (PSR sort gate): high polyreactivity

Sequence: QVQLVESGGGLVQAGGSLRLSCAASGYIFFFYAMGWYRQAPGKERELVASITYRGGSTYYADSVKGRFTISRDNAKNTVYLQMNSLKPEDTAVYYCNVDGGGPLGPQGFPFDYWGQGTQVTVSS
- polyreactivity (PSR sort gate): low polyreactivity

Sequence: QVQLVESGGGLVQAGGSLRLICAASGRTFVPNVMGWYRQAPGKERELVAAITSGGSTYYADSVKGRFTISRDNAKNTVYLQMNSLKPEDTAVYYCAKRTSWKYGYWGQGTQVTVSS
- polyreactivity (PSR sort gate): high polyreactivity

Sequence: QVQLVESGGGLVQAGGSLRLSCAASGFTFSGYAMGWYRQAPGKERELVAAITRRGGSTYYADSVKGRFTISRDNAKNTVYLQMNSLKPEDTAVYYCAADSGYPWELDYWGQGTQVTVSS
- polyreactivity (PSR sort gate): low polyreactivity

Sequence: QVQLVESGGGLVQAGGSLRLSCAASGIIFRNNAMGWYRQAPGKERELVAAISRRGGSTSYADSVKGRFTISRDNAKNTVYLQMNSLKPEDTAVYYCNKAGPYYGYPHYLFYYWGQGTQVTVSS
- polyreactivity (PSR sort gate): high polyreactivity

Sequence: QVQLVESWGGLVQAGGSHRLSCSASGTILGDYGMGWYRQAPGKEREMVGAITWNGDSTYYADSVKGRFTISRDNAKNTVYLQMNSLKPEDTAVYYCAADLKDYKYYPWYGYWGQGTQVTVSS
- polyreactivity (PSR sort gate): low polyreactivity

Sequence: QVHLVESGGGLVQAGGSLRLSCAASGRTFANYAMGWYRQAPGKERELVAAISFSTVSTYYADSVKGRFTISRDNAKNTVYLQMNSLKPEDTAVYYCAARRLGYYRKVKELDYWGQGTQVTVSS
- polyreactivity (PSR sort gate): high polyreactivity

Sequence: QVQLVESGGGLVQAGGSLRLSCAASGGISTAYTMGWYRQEPGKERELVADITRSGGRTYYADSVKGRFTISRDTAKNNVYLQMNSLKPEDTAVYYCARTYYYRFNYWGQGTQVTVSS
- polyreactivity (PSR sort gate): high polyreactivity

Sequence: QVQLVESGAGLVQAGGSLRLSCAASGIIIPYYVMGRYRQAPGKEMELVAAISGSGGSTYYADSVKGRFTISRDNAKYTVYLQLNSLKPEAPAVYYCARYYYQFGGYEYWGQGTQVTVSS
- polyreactivity (PSR sort gate): high polyreactivity

Sequence: QVQLVESGGGLVQAGGSLRLSCAASGRTSWVYAMGWYRQAPGTERELVASIRKRTVVYADSVKGRFTISRDNAKNTVYLQMNSLKPEDTAVYYCNADTTFYGYRTYRPENYWGQGTQVTVSS
- polyreactivity (PSR sort gate): high polyreactivity

Sequence: QVQLVESGGGLVQAGGSLRLSCAASGSTFSAYDMGWYRQAPGKERELVAAIDTGGTTYYADSVKGRFTISRDTAKNTVYVQMNSLKPEDTAVYYCIATIWYRDYGYWGQGTQVTVSS
- polyreactivity (PSR sort gate): low polyreactivity

Sequence: QVQLVESGGGLDQAGGSLRLSCAASGITFKSYAMGWYRQAPGKERELVAAITYRSGSTYYADSVKGRFTISRDNAKNTVYLQMNSLKPEDTAVYYCAVGGKFQIQTYYQRYNYWGQGTQVTVSS
- polyreactivity (PSR sort gate): high polyreactivity

Sequence: QVQLVESGGGLVQAGGSLRLSCAASGSTIGVYAMGWYRQAPGKERELVAAITSGDSTNYADSVKGRFTISRDNAKNTVYLQMYSLKPEDTAVYYCNARQLYYWYYAYDYWGQGTQVTVST
- polyreactivity (PSR sort gate): low polyreactivity

Sequence: QVQLVESGGGLVQAGGSLRLSCAASGSTFRSNVMGWYRQAPGKAREFVAAITSSSATTYYADSVKGRFTISRDNAKNTVYLQMNSLKPEDTAVYYCAAGGRKAGPAGGQYYYWGQGTQVTVSS
- polyreactivity (PSR sort gate): low polyreactivity

— the nanobody polyreactivity screen of Harvey et al. (2022)
